Measured values from patent US9044392B2, “Nylon-3 co-polymers and synthetic lung surfactant compositions containing same” (Wisconsin Alumni Research Foundation, priority 2010, dated 2015).
Read-outs that look alike come from different tables or passages of the source.

Columns and labels:
[1] = Pulsating bubble surfactometry (PBS), dynamic-bubble mode, 20 cpm; format: physicochemical
Procedure: (§1) Surfactant Sample Preparation: The lipids DPPC, POPG, and PA were individually dissolved in a chloroform/methanol solution (3/1 [v/v]) to a known concentration (˜2 or 4 mg mL^−1). Single-lipid solutions were then combined by volume at the ratio of DPPC:POPG:PA, 68:22:9 [wt:wt:wt] and to a known total lipid concentration (˜2 mg mL^−1). This well-characterized and well-known lipid formulation is considered an adequate mimic of the non-protein (lipid) fraction of LS.^45 The peptides, peptoid, and copolymers were individually dissolved in methanol from a lyophilized powder to a known concentration (1-2 mg mL^−1). For the PBS studies, the peptides, peptoids, and polymers were ‘spiked’ into the lipid mixture at 10 wt % relative to the total lipid content (9.1 absolute wt %), and to a final concentration of ˜1 mg lipid mL^−1. For comparative purposes, the inclusion of peptide/peptoid/copolymer at 10 wt % corresponds to 10 wt % SP-B1-25 (9.1 absolute wt %) relative to the total lipid content. The total combined protein fraction in natural LS is estimated to be ˜10 wt %.^18 For PBS experiments, all σ reported is the standard deviation of the mean.
(§2) Pulsating Bubble Surfactometry: A commercial PBS instrument (General Transco, Largo, Fla.), modified with a direct, real-time imaging system, which has been previously described and validated in detail,^44 was utilized to obtain both static-mode and dynamic-mode data. Samples were dried from chloroform/methanol 3/1 [v/v] in Eppendorf tubes using a DNA 120 speedvac (Thermo Electron, Holbrook, N.Y.), forming a pellet. The pellet was suspended in buffer (150 mM NaCl, 10 mM HEPES, 5 mM CaCl2, pH 6.9) to 1.0 mg lipid mL^−1, with a final known volume of ˜70 μL. The samples were then mixed with a pipette 20 times, sonicated with a Fisher Model 60 probe sonicator for two 15 second spurts, and then mixed again 20 times to form a dispersed suspension. Samples were then loaded into a small plastic sample chamber (General Transco) using a modified leak-free methodology.^43,44 The sample chamber was then placed in the instrument, surrounded by a water bath held at 37° C. A bubble with a radius of 0.4 mm was then formed, and surface area was monitored throughout the experiment.
(§3) Static-mode adsorption data were collected for 20 minutes, where the suspension was allowed to adsorb to the bubble surface over time. […] Dynamic-mode data were then subsequently obtained for each sample at the adult respiratory cycle frequency of 20 cpm for 10 minutes, with a 50% reduction in surface area per pulsation cycle. PBS experiments were repeated three to six times for each sample to ensure repeatability. Representative PBS loops are presented at five minutes of cycling, and indicate clockwise bubble expansion and counterclockwise compression (see FIGS. 6A, 6B, 6C, and 6D). Average γ±σ at selected time intervals are listed in the Examples for both data collection modes. Percent compression is defined here as 100*[(SAmax−SA20)/(SAmax)], where SAmax was the maximum SA value at expansion, and SA20 was the SA at which γ first reaches 20 mN m^−1 upon compression (FIG. 5).
Pulsating Bubble Surfactometry: Dynamic-Bubble Mode. The dynamic surfactant activity during changes in volume or film surface area provides an indication of film sustainability over time. Bubble pulsation at the approximate adult respiratory rate of 20 cycles per minute (cpm) in PBS dynamic-bubble mode at 37° C. permits a simplified evaluation of such dynamic film behavior.^44 In dynamic mode, after static-bubble adsorption, the bubble was subsequently pulsed for 10 minutes and y was recorded with respect to surface area. FIGS. 4A, 4B, 4C, and 4D depict the attained maximum and minimum γ (γmax/min) at 5 minutes of cycling for all lipid films containing polymers or positive controls. Mean γmax/min's±σ at selected time intervals for up to 10 minutes of cycling are located in Tables 4 and 5. […]

[2] = Pulsating bubble surfactometry (PBS), static-bubble mode adsorption; format: physicochemical; conditions: 37° C., mimic 10 wt % in TL, originally synthesized polymers
Procedure: as §1, §2, §3
Pulsating Bubble Surfactometry: Static-Bubble Mode. The immediate adsorptive, γ-reducing effect, and stability of the films over time at a bubble […] interface were assessed via PBS in static-bubble mode. […]

[3] = dynamic-bubble mode, cited from earlier work
[4] = at 5 minutes, static-bubble mode, TL film; cited from earlier work
[5] = 5 minutes of dynamic-bubble cycling, 20 cpm, 37° C. (FIGS. 4A-4D)
[6] = dynamic-bubble pulsation, 1 min, 37° C., mimic 10 wt % in TL, originally synthesized polymers
[7] = dynamic-bubble pulsation, 2.5 min, 37° C., mimic 10 wt % in TL, originally synthesized polymers
[8] = dynamic-bubble pulsation, 10 min, 37° C., mimic 10 wt % in TL, originally synthesized polymers

| Molecule | γmax [1, 5] [mN m^−1] | γmin [1, 5] | Avg % Comp: percent bubble surface area compression required to reach 20 mN m-1 upon compression ([1]; at 5 minutes of dynamic-bubble pulsation on the PBS, 37° C.) [%] | γ max Avg, 1 min [1, 6] [mN m−1] | γ min Avg, 1 min [1, 6] [mN m−1] | γ max Avg, 2.5 min [1, 7] [mN m−1] | γ min Avg, 2.5 min [1, 7] [mN m−1] | γ max Avg, 10 min [1, 8] [mN m−1] | γ min Avg, 10 min [1, 8] [mN m−1] | γ 1 min Avg (mean surface tension) ([2]; 1 min) [mN m−1] | γ 2.5 min Avg (mean surface tension) ([2]; 2.5 min) [mN m−1] | γ 5 min Avg (mean surface tension) ([2]; 5 min) [mN m−1] | γ 10 min Avg (mean surface tension) ([2]; 10 min) [mN m−1] | γeq 20 min Avg (mean surface tension) ([2]; 20 min) [mN m−1] | γmax ([3]; PBS cycling loop) [mN m^−1] | γmin ([3]; PBS cycling loop) | percent compression to reach 20 mN m^−1 [3] [%] | adsorbed γ [4] [mN m^−1] |
| --- | --- | --- | --- | --- | --- | --- | --- | --- | --- | --- | --- | --- | --- | --- | --- | --- | --- | --- |
| SP-B1-25: modified peptide SP-B1-25 (Cys8,11→Ala), surface-active peptide fragment of SP-B, positive control (FPIPLPYAWLARALIKRIQAMIPKG; Pulmonary surfactant-associated protein B in Tanaka lipid film; UniProt P07988 201-225, looked up, variant C8A C11A) | ~50 | near zero | 33.2 | 49.6 | <1 | 49.9 | <1 | 49.8 | <1 | 40.5 | 39.4 | 37.9 | 36.8 | 35.6 | – | – | – | – |
| SP-B: porcine-derived lung surfactant protein B in the Tanaka lipid film (protein, UniProt P15782 1-79, looked up, Pulmonary surfactant-associated protein B in Tanaka lipid film) Pulmonary …: FPIPLPFCWLCRTLIKRIQAVVPKGVLLKAVAQVCHVVPLPVGGICQCLAERYIVICLNMLLDRTLPQLVCGLVLRCSS | – | – | – | – | – | – | – | – | – | – | – | – | – | – | ~36 | near-zero | ~21 | ~26 |
